Target: PATJ (UniProt Q8NI35)
Experiment: reciprocal co-IP (Flag or HA), immunoblot
Conditions: reference: wild type HA-Amot-p130; sites S176

- binding against the reference: lost
Substance: Amot-p130 (Angiomotin) (from UniProt Q8VHG2) S176A

From paper PMC5415356
